This is an account of results in publication PMC2637605.

This series has as its system Foxi1 (FOXI1). The series can be described thus: competition EMSA. To be noted: unlabeled wt competitor; 5 mM HEPES pH 7.9, 100 mM KCl, 26% glycerol, 1.5 mM MgCl2, 0.2 mM EDTA, 0.5 mM DTT, 0.5 mM PMSF, 500 ng poly dI:dC, room temperature 15 min; 6% native gel …; scale: fold molar excess for effective competition. On the technique in general: Mobility shift assays separate free from complexed probe on a gel.

ATP6V0A4 Fk1-3 wt (-561/-547) returned a competitor fold molar excess for effective competition of 10.
